Assay results taken from publication PMC3563642, “MERTK Interactions with SH2-Domain Proteins in the Retinal Pigment Epithelium” (PLoS ONE, 2013).

T1: 6xHis-rMERTK(571–999), full-length human MERTK cytoplasmic domain (human, UniProt Q12866 571-999, autophosphorylated on tyrosine (incubated with ATP/MgCl2); sites Y749, Y753, Y754 were mapped on rMERTK571–864, not on this construct)
T1 construct: Expressed from the pET28a-LIC vector; also called MERTK intracellular domain; source: E. coli BL21 DE3 Gold, purified (Ni2+-NTA, Sephacryl S-200 HR), autophosphorylated with 10 mM ATP, 10 mM MgCl2
T1 sequence (looked up): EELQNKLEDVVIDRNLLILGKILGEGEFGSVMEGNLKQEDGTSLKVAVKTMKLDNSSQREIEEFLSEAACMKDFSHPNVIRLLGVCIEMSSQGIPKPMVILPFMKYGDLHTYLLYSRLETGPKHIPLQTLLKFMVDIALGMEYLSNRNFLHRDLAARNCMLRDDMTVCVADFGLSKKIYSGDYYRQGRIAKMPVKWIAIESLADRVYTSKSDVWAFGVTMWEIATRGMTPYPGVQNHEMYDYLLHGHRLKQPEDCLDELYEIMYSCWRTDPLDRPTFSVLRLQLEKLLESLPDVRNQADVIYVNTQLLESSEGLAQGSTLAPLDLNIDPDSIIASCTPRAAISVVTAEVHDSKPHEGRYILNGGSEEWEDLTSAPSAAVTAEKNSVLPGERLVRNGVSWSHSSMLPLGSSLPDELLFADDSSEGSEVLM

B1: VAV3 GST-SH2 domain fusion protein (domain or fragment, human, UniProt Q9UKW4 672-766, looked up)
chain: WYAGAMERLQAETELINRVNSTYLVRHRTKESGEYAISIKYNNEAKHIKILTRDGFFHIAENRKFKSLMELVEYYKHHSLKEGFRTLDTTLQFPY
notes: pGEX2T construct from a library of SH2 domains; also called rSH2-domain fusion protein corresponding to VAV3; source: E. coli BL21 DE3 Gold, purified (glutathione-agarose, Sephacryl S-200 HR)
B2: HCK GST-SH2 domain fusion protein (domain or fragment, human, UniProt P08631 144-241, looked up)
chain: WFFKGISRKDAERQLLAPGNMLGSFMIRDSETTKGSYSLSVRDYDPRQGDTVKHYKIRTLDNGGFYISPRSTFSTLQELVDHYKKGNDGLCQKLSVPC
notes: pGEX2T construct from a library of SH2 domains; also called rSH2-domain fusion protein corresponding to HCK; source: E. coli BL21 DE3 Gold, purified (glutathione-agarose, Sephacryl S-200 HR)
B3: VAV1 GST-SH2 domain fusion protein (domain or fragment, human, UniProt P15498 671-765, looked up)
chain: WYAGPMERAGAESILANRSDGTFLVRQRVKDAAEFAISIKYNVEVKHIKIMTAEGLYRITEKKAFRGLTELVEFYQQNSLKDCFKSLDTTLQFPF
notes: pGEX2T construct from a library of SH2 domains; also called rSH2-domain fusion protein corresponding to VAV1; source: E. coli BL21 DE3 Gold, purified (glutathione-agarose, Sephacryl S-200 HR)

Each binder was assayed against T1, 6xHis-rMERTK(571–999), full-length … (assay: pull-down; Ni2+-NTA pull down: GST-rSH2-domain protein (10 µg) incubated with autophosphorylated 6xHis-rMERTK571–999 (10 µg) in 50 mM NaH2PO4, 300 mM NaCl, 10 mM imidazole, 0.1 µM PMSF, 1 h at 4°C, then Ni2+-NTA resin 0.5 h; washes with 50 mM imidazole, elution with 500 mM imidazole; Coomassie-stained SDS gels; negative control omits rMERTK). Conditions: both partners purified.

| binding result | Binder |
| --- | --- |
| binds | B1 |
| binds | B2 |
| binds | B3 |
